In patent US20130210709A1 (ANCHOR THERAPEUTICS, published 2013):
Ends that are not written are not given here. * marks the point of attachment. Palmitoyl = CCCCCCCCCCCCCCCC(=O)*

B1: CXCR4 i2 loop compound 76 (peptide)
peptide: DRYLAIVHATNSQRPRKLL-NH2
modifications: not fully specified (N-terminus); also: second lipid on tether backbone (C31H62NC(O)- tether)
B2: CXCR4 i2 loop compound 80 (peptide)
peptide: Palmitoyl-HATNSQRPRKLLA-NH2
SMILES: CCCCCCCCCCCCCCCC(=O)N[C@@H](Cc1c[nH]cn1)C(=O)N[C@@H](C)C(=O)N[C@H](C(=O)N[C@@H](CC(N)=O)C(=O)N[C@@H](CO)C(=O)N[C@@H](CCC(N)=O)C(=O)N[C@@H](CCCNC(=N)N)C(=O)N1CCC[C@H]1C(=O)N[C@@H](CCCNC(=N)N)C(=O)N[C@@H](CCCCN)C(=O)N[C@@H](CC(C)C)C(=O)N[C@@H](CC(C)C)C(=O)N[C@@H](C)C(N)=O)[C@@H](C)O
B3: CXCR4 i2 loop compound 78 (peptide)
peptide: Palmitoyl-VHATNSQRPRKLLA-NH2
SMILES: CCCCCCCCCCCCCCCC(=O)N[C@H](C(=O)N[C@@H](Cc1c[nH]cn1)C(=O)N[C@@H](C)C(=O)N[C@H](C(=O)N[C@@H](CC(N)=O)C(=O)N[C@@H](CO)C(=O)N[C@@H](CCC(N)=O)C(=O)N[C@@H](CCCNC(=N)N)C(=O)N1CCC[C@H]1C(=O)N[C@@H](CCCNC(=N)N)C(=O)N[C@@H](CCCCN)C(=O)N[C@@H](CC(C)C)C(=O)N[C@@H](CC(C)C)C(=O)N[C@@H](C)C(N)=O)[C@@H](C)O)C(C)C
B4: CXCR4 i2 loop compound 79 (peptide)
peptide: Palmitoyl-HATNSQRPRKL-NH2
SMILES: CCCCCCCCCCCCCCCC(=O)N[C@@H](Cc1c[nH]cn1)C(=O)N[C@@H](C)C(=O)N[C@H](C(=O)N[C@@H](CC(N)=O)C(=O)N[C@@H](CO)C(=O)N[C@@H](CCC(N)=O)C(=O)N[C@@H](CCCNC(=N)N)C(=O)N1CCC[C@H]1C(=O)N[C@@H](CCCNC(=N)N)C(=O)N[C@@H](CCCCN)C(=O)N[C@@H](CC(C)C)C(N)=O)[C@@H](C)O

Target: CXCR4 receptor (human, UniProt P61073 1-352)
Assay: cell-based or functional assay

CXCR4 receptor, sequence (P61073 whole entry): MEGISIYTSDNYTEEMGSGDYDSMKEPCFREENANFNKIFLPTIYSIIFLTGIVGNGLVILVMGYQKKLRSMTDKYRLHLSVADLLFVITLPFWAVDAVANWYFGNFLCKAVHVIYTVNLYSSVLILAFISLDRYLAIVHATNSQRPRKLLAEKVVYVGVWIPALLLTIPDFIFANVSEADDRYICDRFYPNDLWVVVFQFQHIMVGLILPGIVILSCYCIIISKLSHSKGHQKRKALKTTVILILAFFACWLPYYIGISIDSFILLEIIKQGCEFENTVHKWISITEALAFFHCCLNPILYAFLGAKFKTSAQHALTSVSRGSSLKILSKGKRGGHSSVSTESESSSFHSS

Binder	Peak Ratio, chemotaxis, SUPB-15, 1.0 uM	AUC (% of vehicle), chemotaxis, SUPB-15, 1.0 uM	Max (% of vehicle), chemotaxis, SUPB-15, 1.0 uM
B1	1	–	–
B2	0.2	102 % of vehicle	69 % of vehicle
B3	0.2	71.8 % of vehicle	72.3 % of vehicle
B4	0.2	109 % of vehicle	110 % of vehicle
